Source: US20170209529A1 (BRIGHAM AND WOMEN S HOSPITAL, published 2017)
Several values for one entry are separate records, joined by “and”; a condition that tells them apart may be missing. Identical values can stand only once. Like-named read-outs stand apart in the source and are kept apart here. One block for each binder: values may come before it. Bridge positions count the residues as written; N and C are the ends.

Tests used:
[1] = biological target: T1, soluble human FcRn (shFcRn) (human, UniProt P55899 24-297; P61769 21-119); assay: SPR (Biacore), immobilized shFcRn, pH 6; data fit column: aggregates/non specific
T1 construct: For crystallography it was expressed in CHOK1SV cells and deglycosylated with PNGaseF; biotinylated for phage selection; also called hFcRn/β2m; FcRn-biotin

[2] = biological target: T1, soluble human FcRn (shFcRn); assay: SPR (Biacore), immobilized shFcRn, pH 6
[3] = biological target: T1, soluble human FcRn (shFcRn); assay: SPR (Biacore), immobilized shFcRn, pH 7.4
[4] = biological target: T1, soluble human FcRn (shFcRn); assay: SPR (Biacore), Kd pH 7.4 divided by Kd pH 6.0
[5] = biological target: T1, soluble human FcRn (shFcRn); assay: SPR (Biacore), immobilized shFcRn, pH 6, 2 site fit
[6] = biological target: T1, soluble human FcRn (shFcRn); assay: SPR (Biacore), pH 7.4
Method: (§1) SPR analyses: SPR analyses were conducted using a Biacore 3000 or T100 instrument. Research-grade CMS sensor chips and all coupling reagents for immobilization were purchased from Biacore. All proteins were cross-linked to the dextran surface of a CM5 sensor chip by standard amine coupling chemistry as recommended by Biacore. […] Binding experiments were performed at pH 6.0 or 7.4 using 50 mM phosphate, 100 mM sodium chloride and 0.01% surfactant P20. […] Bound albumin protein was then allowed to dissociate from the chip for 5 minutes with running buffer. Any remaining albumin was removed from the chip with a 60 second injection (2 cycles) of pH 8.0 Tris-HCl regeneration buffer (1 M Tris pH 8.0) at 25 μL/min flow rate. The binding responses recorded near the end of the association phase were plotted as a function of concentration. Equilibrium dissociation constants (KD), were derived from sensorgrams using the 1:1 binding model of BlAevaluation software 4.1.

[7] = biological target: T1, soluble human FcRn (shFcRn); assay: SPR (Biacore), immobilized shFcRn, pH 6, steady-state fit
[8] = biological target: T1, soluble human FcRn (shFcRn); assay: SPR (Biacore), pH 6.0
Method: as §1

[9] = biological target: T1, soluble human FcRn (shFcRn); assay: SPR (Biacore), immobilized shFcRn, pH 7.4; remark: listed apart in the source
[10] = biological target: T1, soluble human FcRn (shFcRn); assay: SPR (Biacore), Kd pH 7.4 divided by Kd pH 6.0; remark: listed apart in the source
[11] = biological target: T1, soluble human FcRn (shFcRn); assay: SPR (Biacore), pH 6.0; pH 6.0
[12] = biological target: T1, soluble human FcRn (shFcRn); assay: SPR (Biacore), immobilized shFcRn, pH 6, steady-state fit; remark: listed apart in the source
[13] = biological target: T1, soluble human FcRn (shFcRn); assay: SPR (Biacore), immobilized shFcRn, pH 6, fit 'ss'
[14] = biological target: T1, soluble human FcRn (shFcRn); assay: phage display hit; X-ray crystallography
[15] = biological target: T1, soluble human FcRn (shFcRn); assay: method not stated in the sentence (Example 5, description of peptides); approximate KD in the Example 5 text, pH and method not stated
[16] = biological target: T1, soluble human FcRn (shFcRn); assay: SPR (Biacore), immobilized shFcRn, pH 6, steady-state fit; pH 6; first of two values in the cell, marked *; immobilized shFcRn

Binder: Ac-AGYMTCKWDDGFSCEYVGTGGGK-NH2 (disulfide 6-14 (inferred)) [SYN515]
- Kd [3]: 18000 nM
- Kd Ratio 7.4/6.0 [4]: 78
- Kd [5]: 230 nM

Binder: Ac-TCKWDDGFSCEYV-NH2 (disulfide 2-10 (inferred)) [SYN1162]
- Kd [2]: 97600 nM

Binder: Ac-YMTCKWDDGFSCE-NH2 (disulfide 4-12 (inferred)) [SYN1165]
- Kd [2]: 40300 nM

Binder: Ac-YMTCKWDDGFSCEY-NH2 (disulfide 4-12 (inferred)) [SYN1164]
- Kd [2]: 570 nM

Binder: YMTXKWDDGFSCEYV (N-terminal acetyl; C-terminal amide; Pen (penicillamine) at position 4) [SYN1167]
- Kd [2]: 2030 nM

Binder: YMTCKWDDGFSXEYV (N-terminal acetyl; C-terminal amide; Pen (penicillamine) at position 12) [SYN1168]
- Kd [2]: 1940 nM

Binder: Ac-AGRYFCTKWKHGWCEEVGTGGGK-NH2 (disulfide 6-14 (inferred)) [SYN571]
- Kd [9]: 13100 nM
- Kd [6]: 13100 nM
- Kd Ratio 7.4/6.0 [10]: 29
- Kd [11]: 500 nM
- Kd [12]: 450 nM and 500 nM

Binder: Ac-YATCKWDDGFSCEYV-NH2 (disulfide 4-12 (inferred)) [SYN1145]
- Kd [13]: 57000 nM

Binder: Ac-YMTCKWDAGFSCEYV-NH2 (disulfide 4-12 (inferred)) [SYN1150]
- Kd [3]: 400 nM
- Kd Ratio 7.4/6.0 [4]: 2.2
- Kd [5]: 180 nM

Binder: Ac-YMACKWDDGFSCEYV-NH2 (disulfide 4-12 (inferred)) [SYN1146]
- Kd [3]: 8600 nM
- Kd Ratio 7.4/6.0 [4]: 34.4
- Kd [5]: 250 nM

Binder: Ac-YMTCAWDDGFSCEYV-NH2 (disulfide 4-12 (inferred)) [SYN1147]
- Kd [3]: 27000 nM
- Kd Ratio 7.4/6.0 [4]: 56
- Kd [5]: 470 nM
- Kd [7]: 480 nM

Binder: YMTXKWDDGFSXEYV (N-terminal acetyl; C-terminal amide; Pen (penicillamine) at positions 4 and 12) [SYN1169]
- Kd [2]: 870 nM

B3: SYN1327 (peptide)
peptide: RFXTGHFGXLYPC
modifications: N-terminal acetyl; C-terminal amide; Pen (L-penicillamine) at 3; Sar (sarcosine) at 9; NMeLeu (L-N-methylleucine) at 10
- Kd [6]: 170 nM
- Kd [8]: 31 nM
- Kd [15]: ~25 nM

Further lines, results first:

- binding result [1]: no binding
Binder: Ac-VMHAFWDEEFRAEYV-NH2 [SYN1559]

- binding result [2]: no binding
Binder: Ac-CKWDDGFSCEYV-NH2 (disulfide 1-9 (inferred)) [SYN1163]

- Kd [3]: 1100 nM
- Kd [6]: 1100 nM
- Kd Ratio 7.4/6.0 [4]: 34
- Kd [7]: 32 nM
- Kd [8]: 32 nM
B1: SYN1383 (peptide)
peptide: Ac-VMHCFWDEEFRCEYV-NH2
modifications: disulfide 4-12 (inferred)
notes: Truncated and SAR-optimized analog of SYN514

- Kd [8]: 500 nM
Binder: Ac-RYFCTKWKHGWCEEVGT-NH2 (disulfide 4-12 (inferred)) [SYN1753]

- Kd [8]: 3.6 nM
B2: SYN3258 (peptide)
peptide: Ac-RYFCTKWKHGWCEEVGTGGGRYFCTKWKHGWCEEVGT-NH2
modifications: disulfide 4-12, 24-32 (inferred)
notes: 37-mer, two SYN1753 units joined by GGG; also called Ac-[SYN1753]-GGG-[SYN1753]-CONH2

- binding result [2]: no binding
Binder: Ac-YMTCKWDDGASCEYV-NH2 (disulfide 4-12 (inferred)) [SYN1152]

- binding result [14]: binds
Binder: Ac-AGVMHCFWDEEFKCDQGGTGGGK-NH2 (disulfide 6-14 (inferred)) [SYN514]

- Kd [3]: 1100 nM
- Kd [16]: 31 nM
- Kd Ratio 7.4/6.0 [4]: 61
- Kd [7]: 18 nM
Binder: Ac-VMKCWWDEEFLCRAF-NH2 (disulfide 4-12 (inferred)) [SYN1536]
